# Assay results reported in PMC6592955.
# Assays:
# calmodulin (CaM) = calmodulin (CaM) (UniProt P0DP26); experiment: 2pFLIM-FRET in single dendritic spines; conditions: reference: wild type
# [1] = biological target: mEGFP-CaMKIIα^T286A (Rattus norvegicus) (UniProt P11275); experiment: FRET or BRET; 2pFLIM-FRET in single dendritic spines of CA1 pyramidal neurons, organotypic hippocampal slices; single glutamate uncaging pulse; room temperature; decay fitted with a single exponential; T286A in slices of Camk2a^T286A knock-in mice
# [2] = biological target: mEGFP-CaMKIIα^T305A/T306A (Rattus norvegicus) (UniProt P11275); experiment: as above
# [3] = biological target: mEGFP-CaMKIIα^T286A (Rattus norvegicus) (UniProt P11275); experiment: FRET or BRET; 2pFLIM-FRET in single dendritic spines of CA1 pyramidal neurons, organotypic hippocampal slices; glutamate uncaging at near physiological temperature (34–35 °C); Supplementary Fig. 2
# [4] = biological target: mEGFP-CaMKIIα (wildtype) (Rattus norvegicus) (UniProt P11275); experiment: FRET or BRET; 2pFLIM-FRET in single dendritic spines of CA1 pyramidal neurons, organotypic hippocampal slices; single glutamate uncaging pulse; room temperature; decay fitted with a single exponential; T286A in slices of Camk2a^T286A knock-in mice
# [5] = biological target: mEGFP-CaMKIIα (wildtype) (Rattus norvegicus) (UniProt P11275); experiment: FRET or BRET; 2pFLIM-FRET in single dendritic spines of CA1 pyramidal neurons, organotypic hippocampal slices; glutamate uncaging at near physiological temperature (34–35 °C); Supplementary Fig. 2
substance,measurement,setting,value
CaMKIIα (from UniProt P11275) T286A,other: dissociation time constant,calmodulin (CaM); sites T286,weaker; reference 2.9 ± 0.3
same,other: fast dissociation time constant,calmodulin (CaM); sites T286,weaker; reference 3.2 ± 0.6
CaMKIIα (from UniProt P11275) T305A/T306A,other: dissociation time constant,"calmodulin (CaM); sites T305,T306",stronger; reference 2.9 ± 0.3
same,other: fast dissociation time constant,"calmodulin (CaM); sites T305,T306",stronger; reference 3.2 ± 0.6
mCherry-CaM (from UniProt P0DP26 1-149) (natural protein),dissociation time constant (tau),[1],1.2 s
same,dissociation time constant (tau),[2],7.5 s
same,dissociation time constant (tau),[3],0.3 s
mCherry-CaM (from UniProt P0DP26 1-149) (natural protein; other documents disagree on this pair),dissociation time constant (tau),[4],2.9 s
same,koff,[4],0.33 s⁻¹
same,dissociation time constant (tau),[5],0.4 s
